Measurements from patent publication US20240181125A1 (published 2024).
Blank lines part the entries; values can stand above or below the binder they belong to. Primed or numbered codes have the meaning given here. Ends that are not written are not given here. FITC′ = not defined here

Legend:
Assay in all cases: ELISA-like binding assay
IgG = biological target: IgG
TβR3 = biological target: TβR3
[1] = biological target: T1, TGFβ receptor I (TβR1), R&D, coated on ELISA plate
T1 chain: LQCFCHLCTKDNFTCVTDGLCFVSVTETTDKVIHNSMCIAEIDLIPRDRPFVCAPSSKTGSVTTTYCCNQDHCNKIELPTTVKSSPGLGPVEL

- Kd (IgG): 83 µM
- Kd (TβR3): 41.1 µM
B1: PTβR2I (peptide)
peptide: ECGLLPVGRPDRVWRLCK-{FITC′}
modifications: cysteine pairing not given here

- Kd [1]: 35.2 µM
B2: peptide-based TGFβ receptor II inhibitor (PTβR2I), ECGLLPVGRPDRVWRLCK-FITC (peptide)
peptide: ECGLLPVGRPDRVWRLCK-{FITC′}
modifications: cysteine pairing not given here
